The results in this text go back to patent US20250250357A1 (NANJING ZAIMING PHARMACEUTICAL, published 2025).

Residue numbers refer to the chain shown, from its start. Where two headings read alike, the source gives them in different places.

Test [1] deals with T1, human MSLN-FL-his protein (human, UniProt Q13421 296-580).
T1 construct: made in HEK293E cells, purified on nickel column; also called hMSLN-FL-his; human MSLN full-length protein; not shown: His tag
Kind of test: competitive ELISA; row F2.58.8. Also: test concentration or dose not given here.

For test [2], the target named is T1, human MSLN-FL-his protein. The test can be described thus: competitive ELISA; row Tab108 (R3). Also: test concentration or dose not given here.
The target of test [3] is T1, human MSLN-FL-his protein. Kind of test: competitive ELISA; row F1.2.12. Also: test concentration or dose not given here.
In test [4] the target is T1, human MSLN-FL-his protein. The test can be described thus: competitive ELISA; row F2.16.10. Also: test concentration or dose not given here.
Test [5] addresses T1, human MSLN-FL-his protein. Kind of test: competitive ELISA; row Tab107 (conformation). Also: test concentration or dose not given here.
Test [6] deals with T1, human MSLN-FL-his protein. The test can be described thus: competitive ELISA; row F1.56.1. Also: test concentration or dose not given here.
For test [7], the target named is T1, human MSLN-FL-his protein. The test can be described thus: competitive ELISA; row F2.17.3.
Description: In order to identify antigen-binding sites of antibodies, MSLN chimeric antibodies were grouped using competitive ELISA.
The chimeric antibodies were diluted to 2 μg/mL with PBS and allowed to coat 96-well high-adsorption ELISA plates at 50 μL/well. After the plates were coated at 4° C. overnight, 250 μL of a blocking buffer (PBS containing 2% (w/w) BSA) was added for two hours of blocking at room temperature. 40 μg/mL of the antibodies to be tested were added, and then the human MSLN-FL-His protein with an EC₈₀ concentration corresponding to each of the antibodies to be tested was added for incubation for 2 h. The plates were washed 5 times with PBS, an HRP-labeled anti-His secondary antibody (purchased from Genescript, Cat. No. A00612) was then added for incubation for 1 h, and the plates were washed 5 times again. A TMB substrate was added at 50 μL/well, and after 10 minutes of incubation at room temperature, a stop solution (1.0 M HCl) was added at 50 μL/well. OD₄₅₀ nm values were read using an ELISA plate reader (Insight, purchased from PerkinElmer), and the competition rate between the antibodies was calculated according to the OD₄₅₀ nm values using a formula.
Test [8] deals with T1, human MSLN-FL-his protein. The test can be described thus: SPR (Biacore), antibody captured on Protein A chip.
Description: The flow cell was set at 25° C. The sample block was set at 16° C. Both were pretreated with the running buffer. In each cycle, first, the antibody to be tested was captured using the Protein A chip, and then a single concentration of human MSLN-FL-his protein was injected. […] The association was determined by injecting different concentrations of human MSLN-FL-his in solution for 240 s on end, wherein the flow rate was 30 μL/min, and the protein was diluted in a 1:1 dilution ratio from 200 nM (see detailed results for actual concentrations tested) to obtain 5 concentrations in total. The dissociation phase was monitored for up to 600 s and triggered by switching from the sample solution to the running buffer. The surface was regenerated by washing with 10 mM glycine solution (pH 1.5) at a flow rate of 30 μL/min for 30 s. The difference in bulk refractive index was corrected by subtracting the responses obtained from the goat anti-human Fc surface. Blank injections were also subtracted (=double reference). To calculate the apparent KD and other kinetic parameters, the Langmuir 1:1 model was used.
The target of test [9] is T1, human MSLN-FL-his protein. Kind of test: competitive ELISA; row F2.24.10. Also: test concentration or dose not given here.
The target in test [10] is T1, human MSLN-FL-his protein. Kind of test: competitive ELISA; row Tab142 (R1). Also: test concentration or dose not given here.
In test [11] the target is T1, human MSLN-FL-his protein. The test can be described thus: competitive ELISA; row F1.35.24. Also: test concentration or dose not given here.
In test [12] the target is T1, human MSLN-FL-his protein. Kind of test: competitive ELISA; row F2.13.3. Also: test concentration or dose not given here.
The target of test [13] is T1, human MSLN-FL-his protein. Kind of test: competitive ELISA; row F2.39.3. Also: test concentration or dose not given here.
The target of test [14] is T2, human MSLN full-length protein (NCBI: AAH09272.1) expressed on HEK293T-hMSLN-B8 cells (human, UniProt Q13421 296-598).
T2 construct: Whole encoded precursor
Kind of test: FACS on HEK293T-hMSLN-B8 cells.
Description: (§1) The desired cells were expanded to the logarithmic growth phase in a T-75 cell culture flask. […] After the cells from the previous step were subjected to cell counting, the cell pellet was resuspended to 2×10⁶ cells/mL in a blocking buffer of [PBS+2% (w/w) BSA] and added into a 96-well FACS reaction plate at 50 μL/well. A chimeric antibody (a sample to be tested) was added at 50 μL/well, and the plate was incubated on ice for 2 h. […] After the plate was centrifuged and washed 5 times with a PBST buffer, assay and analysis were performed by FACS (FACS CantoII, purchased from BD). Data analysis was performed by software (Flowjo) to obtain the mean fluorescence intensity (MFI) of the cells.

Test [15] deals with T3, human MSLN-R3 protein (Met487-Ser606 of NCBI AAH09272.1) expressed on HEK293T-hMSLN-R3 cells (human, UniProt Q13421 487-606).
T3 construct: also called Region3
The test can be described thus: FACS on HEK293T-hMSLN-R3 cells.
Description: as §1

Test [16] concerns the target T4, human MSLN protein endogenously expressed on OVCAR3 tumor cells (human, UniProt Q13421 296-598).
T4 construct: whole, on cells; Endogenous target on OVCAR3 cells; kept apart from the recombinant full-length construct; also called mesothelin
Kind of test: FACS on OVCAR3 cells.
T4 sequence (Q13421 other isoform, or with tags, fused parts or gaps): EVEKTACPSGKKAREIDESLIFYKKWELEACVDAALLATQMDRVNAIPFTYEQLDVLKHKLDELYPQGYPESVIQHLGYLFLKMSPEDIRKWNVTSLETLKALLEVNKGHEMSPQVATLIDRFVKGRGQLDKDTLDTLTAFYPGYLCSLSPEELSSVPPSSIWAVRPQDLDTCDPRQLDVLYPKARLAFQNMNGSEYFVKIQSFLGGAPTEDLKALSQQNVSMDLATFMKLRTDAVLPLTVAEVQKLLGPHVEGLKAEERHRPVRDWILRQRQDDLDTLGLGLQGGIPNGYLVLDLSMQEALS
Description: as §1

Test [17] addresses T1, human MSLN-FL-his protein. The test can be described thus: competitive ELISA; row F8-19.21. Also: test concentration or dose not given here.
The target in test [18] is T1, human MSLN-FL-his protein. The test can be described thus: SPR (Biacore), antibody captured on Protein A chip. The source holds these as a separate data set.
Test [19] concerns the target T5, human MSLN protein endogenously expressed on OVCAR3 tumor cells (human, UniProt Q13421 296-598).
T5 construct: whole, on cells; endogenous expression on a tumor cell line; also called human mesothelin
Kind of test: FACS on OVCAR3 cells.
Description: as §1

Test [20] addresses T1, human MSLN-FL-his protein. The test can be described thus: competitive ELISA; row Tab021. Also: test concentration or dose not given here.
Test [21] deals with T1, human MSLN-FL-his protein. The test can be described thus: competitive ELISA; row F8-5.15. Also: test concentration or dose not given here.
In test [22] the target is T1, human MSLN-FL-his protein. Kind of test: competitive ELISA; row F8-31.22. Also: test concentration or dose not given here.
Test [23] has as its target T1, human MSLN-FL-his protein. Kind of test: competitive ELISA; row F8-4.5. Also: test concentration or dose not given here.
The target in test [24] is T1, human MSLN-FL-his protein. Kind of test: competitive ELISA; row F8-27.1. Also: test concentration or dose not given here.
Test [25] addresses T1, human MSLN-FL-his protein. The test can be described thus: competitive ELISA; row F8-15.19. Also: test concentration or dose not given here.
Test [26] deals with T1, human MSLN-FL-his protein. Kind of test: competitive ELISA; row F8-18.9. Also: test concentration or dose not given here.
The target of test [27] is T1, human MSLN-FL-his protein. The test can be described thus: competitive ELISA; row F8-12.13. Also: test concentration or dose not given here.
Test [28] has as its target T1, human MSLN-FL-his protein. Kind of test: competitive ELISA; row F8-13.8. Also: test concentration or dose not given here.
Test [29] concerns the target T6, human MSLN-R3 protein expressed on HEK293T cells (HEK293T-hMSLN-R3) (human, UniProt Q13421 487-606).
T6 construct: C-terminal limit uncertain
Kind of test: FACS on HEK293T-hMSLN-R3 cells.

The target of test [30] is T1, human MSLN-FL-his protein. The test can be described thus: competitive ELISA; row F8-7.5. Also: test concentration or dose not given here.
Test [31] has as its target T1, human MSLN-FL-his protein. The test can be described thus: competitive ELISA; row Tab142. Also: test concentration or dose not given here.
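For result in this document: chimeric antibodies incubated with cells on ice for 2 h, binding read by flow cytometry as mean fluorescence intensity.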

T2 sequence (Q13421 other isoform, or with tags, fused parts or gaps limits assumed): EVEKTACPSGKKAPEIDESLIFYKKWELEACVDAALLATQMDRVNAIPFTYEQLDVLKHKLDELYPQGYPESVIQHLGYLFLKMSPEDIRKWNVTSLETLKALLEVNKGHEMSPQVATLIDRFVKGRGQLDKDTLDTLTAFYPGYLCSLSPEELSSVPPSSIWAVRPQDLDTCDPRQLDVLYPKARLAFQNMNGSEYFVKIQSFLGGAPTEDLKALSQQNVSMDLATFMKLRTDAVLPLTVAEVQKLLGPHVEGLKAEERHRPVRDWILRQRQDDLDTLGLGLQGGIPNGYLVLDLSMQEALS
T1 sequence (Q13421 other isoform, or with tags, fused parts or gaps): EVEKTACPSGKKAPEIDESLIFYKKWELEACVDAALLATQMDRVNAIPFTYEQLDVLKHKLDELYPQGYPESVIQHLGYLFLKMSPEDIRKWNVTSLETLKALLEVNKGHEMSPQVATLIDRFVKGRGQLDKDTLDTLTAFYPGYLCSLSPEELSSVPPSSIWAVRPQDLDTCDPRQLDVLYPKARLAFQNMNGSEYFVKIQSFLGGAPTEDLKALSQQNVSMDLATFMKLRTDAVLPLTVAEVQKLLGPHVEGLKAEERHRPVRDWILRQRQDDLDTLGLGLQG
T3 sequence (Q13421 495-614): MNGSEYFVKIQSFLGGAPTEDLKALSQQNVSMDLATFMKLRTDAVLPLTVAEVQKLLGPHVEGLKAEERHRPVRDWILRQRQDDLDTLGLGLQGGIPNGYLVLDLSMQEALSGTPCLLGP
T6 sequence (Q13421 495-614): as above

B1: S009-F1.2.12 (antibody, human IgG1, kappa, V domains shown)
VH: QVQLKQTGPGLVQPSQSLSITCTVSGFSLTNYAVHWVRQSPGKGLEWLGVIWSGGATDYNTVFISRLSISKDNSKSQVFFKVNSLQVDDTAIYYCARTGSGYAMDYWGQGTSVTVSS
VL: DIVLTQSPATLSVTPGDRVSLSCRTSHNVNTYLHWYQQKSHESPRLLIKYASQSISEIPSRFSGSGSGTNFTLSINSVETEDFGMYFCHQTNRWPLTFGAGTKLELKR
notes: human-murine chimeric antibody, human IgG1/kappa constant regions
Take B1: the competition rate in test [1] was 32%; in test [2] it was -29%; in test [3], 63%; in test [4] it was -81%; in test [5], 29%; in test [6], 74%. The competition rate in [7] was -31%; in test [9], -17%; in test [10] it was -5%; in [11], 4%; in test [12] it was 54%; in test [13] it was 2%. In addition, in test [8], the Kd came out at 15.8 nM. The molecule also yielded a koff in test [8] of 0.00143 s⁻¹. In [8], this molecule displayed a kon of 90600 M⁻¹ s⁻¹.

B2: S009-F2.47.1 (antibody, human IgG1, kappa, V domains shown)
VH: QVQLQQPGAELVKPGASVKLSCKASGYTFTSYWMHWVKQRPGQGLEWIGMIHPNSGSTNYNEKFKSKATLTVDKSSSTAYMQLSSLTSEDSAVYYCARPVVPYWYFDVWGTGTTVTVSS
VL: DIVMTQSQKFMSTTVGDRVSITCKASQNVGTAVAWYQQKPGQSPKLLIYSASNRYTGVPDRFTGSGSGTDFTLTISNMQSEDLADYFCQQSSSYPLTFGAGTKLELKR
notes: as for B1
As to B2, the competition rate in test [1] is 31%; in test [2], -158%; in test [3], -484%; in test [4], 88%; in [5], -42%; in test [6], -324%. In addition, the competition rate in test [7] was -88%; in test [9], 56%; in test [10] it was 82%; in test [11], -12%; in test [12], -975%; in test [13] it was 23%. Binding in test [8] was put at a Kd of 5.13 nM. In [8], this molecule returned a koff of 0.0103 s⁻¹. Besides, the kon in test [8] came to 2.01e+06 M⁻¹ s⁻¹.

B3: S009-F1.25.10 (antibody, human IgG1, kappa, V domains shown)
VH: EVQLQQSGPELVKPGASLKISCKASGYSFTDYTMNWVKQSHGKNLEWIGLFNPYNGGISYNQKFKGKATLTVDKSSNTAYMELLSLTSDDSAVYFCARDGRGGFYAMDYWGQGTSVTVSS
VL: DIQMTQTTSSLSASLGDRVTISCRASQDISIYLNWYQQKPDGPVKLLIYYTSRLHSGVPSRFSGSGSGTDFSLTISNLEQEDIATYFCQQGYTLPPWTFGGGTKLEIKR
notes: as for B1
With B3, the results for the “Maximum mean fluorescence intensity” value in test [14], in test [15] and in test [16] were 41900, 6260 and 429, respectively. This molecule displayed an EC50 in test [15] of 1.44 nM.

B4: S009-F1.57.1 (antibody, human IgG1, kappa, V domains shown)
VH: EAQLQQSGAVFVKPGASVKLSCTASGFSSKDIFLHWVKQRPEQGLEWIGRIDPASDNTIYDPKFQDRATITSDRSSNTAYLQFSSLTSEDTAVYFCLYFDFWGQGTTLTVSS
VL: DIVMTQATPSISVTPGESVSISCRSSESLLHSNGNTYLYWFLQRPGQSPQLLIYRMSNLASGVPDRFSVSGSGTAFTLRISRVEAEDVGVYYCMQHLEYPLTFGAGTKLELKR
notes: as for B1
With B4, the “Maximum mean fluorescence intensity” value in test [14] stood at 8750; in test [15], 6660; in [16], 948. Further, in test [15], the EC50 was found to be 3.9 nM.

B5: S009-F1.62.9 (antibody, human IgG1, kappa, V domains shown)
VH: EVQLQQSGADLVKPGASVKLSCTVFGLNFKDTFMHWVRQRPEQGLEWIGRIDPANDNSIYGPKFQDKATITADTSSNTAYLHLSSLTSEDTAVYYCLYFDNWGHGTTLTVSS
VL: B4 VL with T8A, P9S, I11E, S12P, S26D, E27K, N35H, T36N, Q50H, V69G
notes: as for B1
Turning to B5, the “Maximum mean fluorescence intensity” value in [14] amounted to 9550; in test [15] it was 6930; in test [16] it was 425. In [15], this molecule came in with an EC50 of 0.95 nM.

B6: S009-F1.59.1 (antibody, human IgG1, kappa, V domains shown)
VH: EVKLEGSGGGLVQPGGSMMLSCVATGFTFSSYWMNWVRQSPDRGLEWVAEIRLKSNGFAAFYAESVKGRFTISRDDSKSSVYLQMNNLRTEDTGIYYCTYFVHWGQGILVTVSE
VL: DIVLTQSPTSLAVSLGQRATISCRTSESVEYFGTILIQWYQQKPGQPPKLLIFGASNVESGVPARFSGSGSGTDFSLNIHPVEEEDIAMYFCQQNRKVPYTFGGGTTLELKR
notes: as for B1
Turning to B6, the entries for the “Maximum mean fluorescence intensity” value in test [14], in [15] and in test [16] were 32800, 7070 and 445, respectively. In test [15], it took 0.31 nM to reach a half-maximal effect (EC50).

B7: S009-F8-7.5 (antibody, human IgG1, kappa, V domains shown)
VH: DVQLQESGPGLVKPSQSLSLTCSVTGYSITSGYYWNWIRQFPGNKLEWMAYIRYDGSNNYNPSLKNRISIIRDTSKNQFFLRLNSVTTEDTATYYCAKSYYGMDDWGQGISVTVSS
VL: DIQMTQSPASLSASVGETVTITCRTSGDIHNYLAWYQQKQGKSPQLLVYKAKTLENGVPSRFTGSGSGTQFSLKIDSLQPEDFGTYYCQHFWTTPYTFGGGTKLEIKR
notes: as for B1
As to B7, the competition rate is 14.7% in test [17]; 14.2% in test [20]; 83.3% in test [21]; -71.5% in test [22]; 3.24% in test [23]; 3.35% in test [24]. Besides, the competition rate is -15.7% in [25]; 11.2% in [26]; -23.2% in test [27]; 3.15% in test [28]; 85.8% in test [30]; 2.16% in test [31]. The molecule further yielded a Kd in test [18] of 92.6 nM. In [18], the koff is 0.0215 s⁻¹. The molecule also registered a kon in test [18] of 232000 M⁻¹ s⁻¹. In test [19], this molecule registered an EC50 of 0.71 nM. The results for the “Maximum mean fluorescence intensity” value in test [19] and in test [29] were 8990 and 279, respectively. Further, the binding result in test [29] is “no binding”.
